Measured values reported in publication PMC2600739 (The Journal of Cell Biology, 2008).

Biological target: the molecule itself
Test: cross-linking

B1: JAM-L–HA (p513-JAM-L-HA vector), wild type (natural protein, human, UniProt Q86YT9 20-394, looked up)
chain: LNDLNVSPPELTVHVGDSALMGCVFQSTEDKCIFKIDWTLSPGEHAKDEYVLYYYSNLSVPIGRFQNRVHLMGDILCNDGSLLLQDVQEADQGTYICEIRLKGESQVFKKAVVLHVLPEEPKELMVHVGGLIQMGCVFQSTEVKHVTKVEWIFSGRRAKEEIVFRYYHKLRMSVEYSQSWGHFQNRVNLVGDIFRNDGSIMLQGVRESDGGNYTCSIHLGNLVFKKTIVLHVSPEEPRTLVTPAALRPLVLGGNQLVIIVGIVCATILLLPVLILIVKKTCGNKSSVNSTVLVKNTKKTNPEIKEKPCHFERCEGEKHIYSPIIVREVIEEEEPSEKSEATYMTMHPVWPSLRSDRNNSLEKKSGGGMPKTQQAF
stoichiometry N: 2
